Experimental data: paper PMC13167773, “Chiral inversion mutagenesis identifies geometrically constrained residues within self-associating low-complexity domains” (Proceedings of the National Academy of Sciences of the …, 2026)

B1: untagged semisynthetic EMD LCD (residues 46 to 221), all-L-WT (domain or fragment, UniProt P50402 46-221, looked up)
chain: RRLSPPSSSAASSYSFSDLNSTRGDADMYDLPKKEDALLYQSKGYNDDYYEESYFTTRTYGEPESAGPSRAVRQSVTSFPDADAFHHQVHDDDLLSSSEEECKDRERPMYGRDSAYQSITHYRPVSASRSSLDLSYYPTSSSTCFMSSSSSSSSWLTRRAIRPENRAPGAGLGQER
notes: Emerin (EMD) LCD residues 46 to 221, S189C and D220E; Rink amide resin implies a C-terminal amide (surmised); also called WT variant; source: RP-HPLC purified
B2: synthetic NEFL head domain 5×D_(22-30) (protein)
chain: SSFSYEPYYSTSYKRRYVETPRVHISSVRCGYSTARSAYSSYSAPVSSSLSVRRSYSSSSGSLMPSLENLELS
B3: synthetic NEFL head domain 5×D_(33-41) (protein)
chain: B2 chain
B4: synthetic NEFL head domain 5×D_(53-63) (protein)
chain: B2 chain
B5: synthetic NEFL head domain 5×D_(43-51) (protein)
chain: B2 chain
B6: synthetic NEFL head domain 5×D_(63-71) (protein)
chain: B2 chain
B7: untagged semisynthetic EMD LCD 3×D_(195-199) (protein)
chain: B1 chain
B8: untagged semisynthetic EMD LCD 3×D_(199-203) (protein)
chain: B1 chain
B9: untagged semisynthetic EMD LCD 3×D_(191-195) (protein)
chain: B1 chain
B10: semisynthetic EMD LCD with a central 1×D inversion within the 3×D_(191-195) variant (protein)
chain: B1 chain
B11: untagged semisynthetic EMD LCD 3×D_(203-207) (protein)
chain: B1 chain
B12: HA-tagged semisynthetic EMD LCD 3×D_(191-195) (domain or fragment)
chain: B1 chain
modifications: three D-amino acids at alternating positions, 3×D_(191-195)
B13: HA-tagged semisynthetic EMD LCD 3×D_(211-215) (domain or fragment)
chain: B1 chain
modifications: three D-amino acids at alternating positions, 3×D_(211-215)
B14: HA-tagged semisynthetic EMD LCD 3×D_(195-199) (domain or fragment)
chain: B1 chain
modifications: three D-amino acids at alternating positions, 3×D_(195-199)
B15: HA-tagged semisynthetic EMD LCD 3×D_(207-211) (domain or fragment)
chain: B1 chain
modifications: three D-amino acids at alternating positions, 3×D_(207-211)
B16: HA-tagged semisynthetic EMD LCD 3×D_(203-207) (domain or fragment)
chain: B1 chain
modifications: three D-amino acids at alternating positions, 3×D_(203-207)
B17: HA-tagged semisynthetic EMD LCD 3×D_(199-203) (domain or fragment)
chain: B1 chain
modifications: three D-amino acids at alternating positions, 3×D_(199-203)
B18: synthetic NEFL head domain (residues 2 to 74), WT (domain or fragment, UniProt P07196 2-74, looked up)
chain: B2 chain
notes: neurofilament light chain (NEFL) head domain residues 2 to 74, ligation junction cysteine S31C and D72E; also called WT head domain; NEFL LCD; source: fully synthetic: NEFL-P1 (2 to 30, MesNa thioester) ligated to NEFL-P2 (31 to 74) by native chemical ligation; RP-HPLC purified

Biological target: the molecule itself
Test: turbidity (absorbance at 395 nm); untagged semisynthetic EMD LCD ChIM library, 50 μM LCD, rapid dilution from strong denaturant into physiological buffer, n = 3
Details: not given

Molecule | binding result
B1 | binds

Biological target: P07196
Test: turbidity (absorbance at 395 nm); synthetic NEFL head domain 5×D library, 100 μM LCD, A395, n = 3
Details: other: turbidity (absorbance at 395 nm)

Molecule | fold decrease in turbidity relative to WT
B2 | 9.1-fold
B3 | 20-fold
B4 | 1.6-fold
B5 | 2.7-fold
B6 | 1 fold

Biological target: P50402
Test: turbidity (absorbance at 395 nm); untagged semisynthetic EMD LCD ChIM library, 50 μM LCD, rapid dilution from strong denaturant into physiological buffer, n = 3
Details: other: turbidity (absorbance at 395 nm)

Molecule | fold decrease in turbidity | fold decrease in turbidity relative to WT
B7 | 2.8 fold | –
B8 | 2.1-fold | –
B9 | 13.3 fold | –
B10 | – | a 6.4-fold decrease in turbidity relative to WT
B11 | a modest 1.4-fold decrease in turbidity | –

Tested on: not listed separately
Test: turbidity (absorbance at 395 nm); untagged recombinant EMD LCD 3×Pro library, 60 μM LCD, transfer from denaturing to native Tris buffer, n = 3; self-association read as precipitation
Details: other: turbidity (absorbance at 395 nm)

Molecule | fold reduction of turbidity relative to WT
untagged EMD LCD 3×Pro_(203-206) | 14.3-fold
untagged EMD LCD 3×Pro_(183-186) | modestly reduces turbidity by 2.8-fold relative to WT
untagged EMD LCD 3×Pro_(188-191) | 108 fold
untagged EMD LCD 3×Pro_(198-201) | 34.7 fold
untagged EMD LCD 3×Pro_(193-196) | 16.6 fold

Biological target: T1, wild-type glutathione S-transferase (GST)-EMD LCD fusion protein
T1 sequence (P50402 whole entry, species assumed, looked up): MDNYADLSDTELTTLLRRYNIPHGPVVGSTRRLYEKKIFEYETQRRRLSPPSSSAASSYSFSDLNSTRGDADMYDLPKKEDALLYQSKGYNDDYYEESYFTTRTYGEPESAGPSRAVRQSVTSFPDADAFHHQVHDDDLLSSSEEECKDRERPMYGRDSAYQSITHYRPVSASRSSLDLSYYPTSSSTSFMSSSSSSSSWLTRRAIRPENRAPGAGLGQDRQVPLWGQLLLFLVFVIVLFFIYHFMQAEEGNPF
Test: pull-down; WT GST-EMD LCD immobilized on glutathione resin, incubated with HA-tagged EMD LCD prey (50 nM), washed with binding buffer, eluted with GSH; anti-HA Western blot of eluent relative to input, densitometry, n = 3
Details: not given

Molecule | fold reduction of pulldown relative to WT [fold]
HA-tagged EMD LCD 3×Pro_(183-186) (domain or fragment) | 2.2
HA-tagged EMD LCD 3×Pro_(193-196) (domain or fragment) | 5.9
HA-tagged EMD LCD 3×Pro_(198-201) (domain or fragment) | 3.4
HA-tagged EMD LCD 3×Pro_(188-191) (domain or fragment) | 5

Biological target: T1, wild-type glutathione S-transferase (GST)-EMD LCD fusion protein
Test: as above
Details: not given
Remark: another data set of the same source

Molecule | fold reduction of pulldown relative to WT [fold] | fold difference of pulldown from WT [fold]
B12 | 8.8 | –
B13 | – | 1.7
B14 | 7.9 | –
B15 | – | 1.8
B16 | 3.6 | –
B17 | 6.2 | –

Biological target: the molecule itself
Test: turbidity (absorbance at 395 nm); synthetic NEFL head domain 5×D library, 100 μM LCD, A395, n = 3
Details: not given

Molecule | binding result
B18 | binds
